# T1: NOX2 (catalytic subunit of NOX2 NADPH oxidase) (mouse, UniProt Q61093 2-570)
# T1 construct: whole, on cells; Endogenous protein in mouse alveolar macrophages, BMDMs and RAW264.7 cells; also called gp91phox; CYBB
# T1 sequence (looked up): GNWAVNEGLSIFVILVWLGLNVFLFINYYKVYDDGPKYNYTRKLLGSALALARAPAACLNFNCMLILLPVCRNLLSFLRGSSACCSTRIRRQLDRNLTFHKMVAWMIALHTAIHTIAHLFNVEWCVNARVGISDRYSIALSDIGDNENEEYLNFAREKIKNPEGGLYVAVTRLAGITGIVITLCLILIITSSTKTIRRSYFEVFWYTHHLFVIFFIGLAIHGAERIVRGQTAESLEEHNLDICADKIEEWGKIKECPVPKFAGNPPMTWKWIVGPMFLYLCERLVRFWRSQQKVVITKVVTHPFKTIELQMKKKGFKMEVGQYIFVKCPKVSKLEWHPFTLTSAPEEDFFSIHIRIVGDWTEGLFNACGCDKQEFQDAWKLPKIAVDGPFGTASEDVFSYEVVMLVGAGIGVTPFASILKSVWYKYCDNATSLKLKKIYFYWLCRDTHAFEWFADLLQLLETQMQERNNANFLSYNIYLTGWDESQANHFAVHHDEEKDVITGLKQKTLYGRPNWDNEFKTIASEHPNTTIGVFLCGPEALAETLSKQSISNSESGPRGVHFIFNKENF
# Target: T1, NOX2 (catalytic subunit of NOX2 NADPH …)
# Experiment: confocal immunofluorescence of NOX2 and p47phox association (NOX2 oxidase assembly) in HKx31-infected mouse macrophages
binder,measurement,value
"p47phox regulatory subunit of NOX2 oxidase (other, mouse, UniProt Q09014 1-390, looked up, whole, on cells; Cytosolic subunit, endogenous in the cells) MGDTFIRHIALLGFEKRFIPSQHYVYMFLVKWQDLSEKVVYRKFTEIYEFHKMLKEMFPIEAGEIHTENRVIPHLPAPRWFDGQRAAESRQGTLTEYFNGLMGLPVKISRCPHLLDFFKVRPDDLKLPTDSQAKKPETYLVPKDGKNNVADITGPIILQTYRAIADYEKSSGTEMTVATGDVVDVVEKSESGWWFCQMKTKRGWVPASYLEPLDSPDEAEDPDPNYAGEPYVTIKAYAAVEEDEMSLSEGEAIEVIHKLLDGWWVVRKGDITGYFPSMYLQKAGEEITQAQRQIRGRGAPPRRSTIRNAQSIHQRSRKRLSQDTYRRNSVRFLQQRRRPGRPGPLSTDGTKDNPSTPRVKPQPAVPPRPSSDLILHRCTESTKRKLTSAV",binding result,binds
